Measured values published in publication PMC4046564, “Reconstitution of dynein transport to the microtubule plus end by kinesin” (eLife, 2014).

B1: Bik1ΔC (domain or fragment, S. cerevisiae, UniProt P11709 1-400, looked up)
chain: MDRYQRKIGCFIQIPNLGRGQLKYVGPVDTKAGMFAGVDLLANIGKNDGSFMGKKYFQTEYPQSGLFIQLQKVASLIEKASISQTSRRTTMEPLSIPKNRSIVRLTNQFSPMDDPKSPTPMRSFRITSRHSGNQQSMDQEASDHHQQQEFGYDNREDRMEVDSILSSDRKANHNTTSDWKPDNGHMNDLNSSEVTIELREAQLTIEKLQRKQLHYKRLLDDQRMVLEEVQPTFDRYEATIQEREKEIDHLKQQLELERRQQAKQKQFFDAENEQLLAVVSQLHEEIKENEERNLSHNQPTGANEDVELLKKQLEQLRNIEDQFELHKTKWAKEREQLKMHNDSLSKEYQNLSKELFLTKPQDSSSEEVASLTKKLEEANEKIKQLEQAQAQTAVESLPIF
notes: Bik1 (Clip170 homolog), S. cerevisiae, lacking the C-terminal 40 amino acids (zinc knuckle domain); also called Bik1ΔC construct lacking the C-terminal 40 amino acids; source: sf21 insect cells (baculovirus), purified (Ni-NTA)
B2: Bik1 (natural protein, S. cerevisiae, UniProt P11709 1-440, looked up)
chain: MDRYQRKIGCFIQIPNLGRGQLKYVGPVDTKAGMFAGVDLLANIGKNDGSFMGKKYFQTEYPQSGLFIQLQKVASLIEKASISQTSRRTTMEPLSIPKNRSIVRLTNQFSPMDDPKSPTPMRSFRITSRHSGNQQSMDQEASDHHQQQEFGYDNREDRMEVDSILSSDRKANHNTTSDWKPDNGHMNDLNSSEVTIELREAQLTIEKLQRKQLHYKRLLDDQRMVLEEVQPTFDRYEATIQEREKEIDHLKQQLELERRQQAKQKQFFDAENEQLLAVVSQLHEEIKENEERNLSHNQPTGANEDVELLKKQLEQLRNIEDQFELHKTKWAKEREQLKMHNDSLSKEYQNLSKELFLTKPQDSSSEEVASLTKKLEEANEKIKQLEQAQAQTAVESLPIFDPPAPVDTTAGRQQWCEHCDTMGHNTAECPHHNPDNQQFF
notes: Bik1 (Clip170 homolog), S. cerevisiae; open-reading frame amplified from genomic DNA; Eluted from Ni-NTA with imidazole; no removal of the tag is told; also called Clip170 homolog; source: sf21 insect cells (baculovirus), purified (Ni-NTA)

Tests used:
[1] = biological target: Kip2 (S. cerevisiae) (UniProt P28743)
[2] = biological target: T1, Kip2 (S. cerevisiae, UniProt P28743 1-706, differently phosphorylated forms (doublet on SDS-PAGE; not treated with phosphatase); Atto647N on the SNAP tag in the TIRF assays); experiment: SEC; Superose 6 PC 3.2/30; indicated combinations of purified protein (100 picomoles each) pre-incubated at 1.1 μM for 10 min at 4°C; 50 mM Tris-HCl pH 8.0, 150 mM potassium acetate, 2 mM magnesium acetate, 1 mM EGTA, 5% glycerol, 1 mM DTT; fractions analysed by SDS-PAGE; settings: both partners purified
T1 construct: kinesin Kip2, S. cerevisiae; genomic kip2 locus modified by homologous recombination (8HIS-ZZ-Tev-KIP2-g-FLAG-ga-SNAP); also called Kip2-Atto647; kinesin; source: S. cerevisiae (strain RPY1099, GAL1 promoter), purified (IgG sepharose via ZZ tag, TEV release; for SEC Ni-NTA then IgG sepharose); not shown: His8, N-terminal, cleaved; ZZ, N-terminal, cleaved; SNAP, C-terminal, kept
T1 sequence (looked up): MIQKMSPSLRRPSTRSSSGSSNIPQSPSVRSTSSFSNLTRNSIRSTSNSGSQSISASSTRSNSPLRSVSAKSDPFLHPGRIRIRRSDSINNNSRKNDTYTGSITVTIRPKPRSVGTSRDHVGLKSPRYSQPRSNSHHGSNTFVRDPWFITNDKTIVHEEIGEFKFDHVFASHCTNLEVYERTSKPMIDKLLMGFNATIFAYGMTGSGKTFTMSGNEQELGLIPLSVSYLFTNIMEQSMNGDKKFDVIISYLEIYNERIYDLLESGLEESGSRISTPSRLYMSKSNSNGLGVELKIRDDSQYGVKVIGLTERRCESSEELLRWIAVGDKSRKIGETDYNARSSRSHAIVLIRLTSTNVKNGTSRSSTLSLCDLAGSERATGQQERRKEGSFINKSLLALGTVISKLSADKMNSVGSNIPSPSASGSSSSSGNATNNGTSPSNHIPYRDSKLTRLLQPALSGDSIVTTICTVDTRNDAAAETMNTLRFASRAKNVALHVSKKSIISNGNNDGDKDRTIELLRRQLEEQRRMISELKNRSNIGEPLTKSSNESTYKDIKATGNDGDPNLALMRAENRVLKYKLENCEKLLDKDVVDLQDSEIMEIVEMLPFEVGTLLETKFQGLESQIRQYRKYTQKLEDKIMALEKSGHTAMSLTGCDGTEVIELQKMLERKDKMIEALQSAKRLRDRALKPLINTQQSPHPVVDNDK

[3] = biological target: B1; experiment: as above; settings: both partners purified
[4] = biological target: B2; experiment: as above; settings: both partners purified

Q: For GST-dynein_(331 kDa), P36022 1-4092, which direction of dynein movements on dynamic microtubules (TIRF) with Lis1, Bik1, Bim1 and Kip2: proportion directed to the plus end; without Lis1 or Bik1 dynein moved to the minus end [1] is on record?
A: The direction of dynein movements on dynamic microtubules (TIRF) with Lis1, Bik1, Bim1 and Kip2: proportion directed to the plus end; without Lis1 or Bik1 dynein moved to the minus end was 90%.

Q: Does B1 bind [2]?
A: Result: binds

Q: Does B2 bind [2]?
A: Result: binds

B3: Bim1 (natural protein, S. cerevisiae, UniProt P40013 1-344, looked up)
chain: MSAGIGESRTELLTWLNGLLNLNYKKIEECGTGAAYCQIMDSIYGDLPMNRVKFNATAEYEFQTNYKILQSCFSRHGIEKTVYVDKLIRCKFQDNLEFLQWLKKHWIRHKDESVYDPDARRKYRPIITNNSATKPRTVSNPTTAKRSSSTGTGSAMSGGLATRHSSLGINGSRKTSVTQGQLVAIQAELTKSQETIGSLNEEIEQYKGTVSTLEIEREFYFNKLRDIEILVHTTQDLINEGVYKFNDETITGHGNGNGGALLRFVKKVESILYATAEGFEMNDGEDELNDKNLGEHGTVPNQGGYANSNGEVNGNEGSNHDVIMQNDEGEVGVSNNLIIDEETF
notes: Bim1 (EB1 homolog), S. cerevisiae; open-reading frame amplified from genomic DNA; also called EB1 homolog; source: E. coli BL-21(DE3), purified (Strep-Tactin, TEV release); not shown: His6, N-terminal, cleaved; Strep, N-terminal, cleaved
Q: Does B3 bind [3]?
A: Result: binds

Q: Does B3 bind [4]?
A: Result: binds
